Target: MDA-modified bovine serum albumin (bovine), P02769
Assay: MST; microscale thermophoresis with both binding partners in fluid phase
Details: remark: other sources report otherwise

Sequence of MDA-modified bovine serum albumin (bovine), P02769 (P02769 25-607): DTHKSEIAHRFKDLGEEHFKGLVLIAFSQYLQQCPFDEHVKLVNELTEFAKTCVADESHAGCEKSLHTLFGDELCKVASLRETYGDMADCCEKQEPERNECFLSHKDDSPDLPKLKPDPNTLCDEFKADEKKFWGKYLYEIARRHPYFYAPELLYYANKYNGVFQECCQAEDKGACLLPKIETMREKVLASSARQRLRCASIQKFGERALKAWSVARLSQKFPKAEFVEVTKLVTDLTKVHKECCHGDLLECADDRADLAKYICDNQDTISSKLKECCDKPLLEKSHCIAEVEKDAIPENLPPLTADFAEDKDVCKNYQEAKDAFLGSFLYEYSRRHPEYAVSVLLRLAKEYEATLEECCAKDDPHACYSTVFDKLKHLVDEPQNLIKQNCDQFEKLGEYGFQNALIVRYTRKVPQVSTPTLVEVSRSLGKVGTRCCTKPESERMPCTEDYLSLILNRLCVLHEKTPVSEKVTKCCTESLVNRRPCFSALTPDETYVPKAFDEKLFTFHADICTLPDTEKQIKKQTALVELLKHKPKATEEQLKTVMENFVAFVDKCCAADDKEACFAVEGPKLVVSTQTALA

Kd: 2.44 µM
B1: complement factor H, P08603 19-1231 (natural protein)
chain: EDCNELPPRRNTEILTGSWSDQTYPEGTQAIYKCRPGYRSLGNVIMVCRKGEWVALNPLRKCQKRPCGHPGDTPFGTFTLTGGNVFEYGVKAVYTCNEGYQLLGEINYRECDTDGWTNDIPICEVVKCLPVTAPENGKIVSSAMEPDREYHFGQAVRFVCNSGYKIEGDEEMHCSDDGFWSKEKPKCVEISCKSPDVINGSPISQKIIYKENERFQYKCNMGYEYSERGDAVCTESGWRPLPSCEEKSCDNPYIPNGDYSPLRIKHRTGDEITYQCRNGFYPATRGNTAKCTSTGWIPAPRCTLKPCDYPDIKHGGLYHENMRRPYFPVAVGKYYSYYCDEHFETPSGSYWDHIHCTQDGWSPAVPCLRKCYFPYLENGYNQNYGRKFVQGKSIDVACHPGYALPKAQTTVTCMENGWSPTPRCIRVKTCSKSSIDIENGFISESQYTYALKEKAKYQCKLGYVTADGETSGSITCGKDGWSAQPTCIKSCDIPVFMNARTKNDFTWFKLNDTLDYECHDGYESNTGSTTGSIVCGYNGWSDLPICYERECELPKIDVHLVPDRKKDQYKVGEVLKFSCKPGFTIVGPNSVQCYHFGLSPDLPICKEQVQSCGPPPELLNGNVKEKTKEEYGHSEVVEYYCNPRFLMKGPNKIQCVDGEWTTLPVCIVEESTCGDIPELEHGWAQLSSPPYYYGDSVEFNCSESFTMIGHRSITCIHGVWTQLPQCVAIDKLKKCKSSNLIILEEHLKNKKEFDHNSNIRYRCRGKEGWIHTVCINGRWDPEVNCSMAQIQLCPPPPQIPNSHNMTTTLNYRDGEKVSVLCQENYLIQEGEEITCKDGRWQSIPLCVEKIPCSQPPQIEHGTINSSRSSQESYAHGTKLSYTCEGGFRISEENETTCYMGKWSSPPQCEGLPCKSPPEISHGVVAHMSDSYQYGEEVTYKCFEGFGIDGPAIAKCLGEKWSHPPSCIKTDCLSLPSFENAIPMGEKKDVYKAGEQVTYTCATYYKMDGASNVTCINSRWTGRPTCRDTSCVNPPTVQNAYIVSRQMSKYPSGERVRYQCRSPYEMFGDEEVMCLNGNWTEPPQCKDSTGKCGPPPPIDNGDITSFPLSVYAPASSVEYQCQNLYQLEGNKRITCRNGQWSEPPKCLHPCVISREIMENYNIALRWTAKQKLYSRTGESVEFVCKRGYRLSSRSHTLRTTCWDGKLEYPTCAKR
modifications: here or on the partner: malondialdehyde-acetaldehyde (MAA) / malondialdehyde (MDA) adducts; sites not stated
